Molecular target: T1, N-terminally tagged GFP cldn2 with the Linker domain between GFP and cldn2 (mouse, UniProt O88552 1-230)
T1 sequence: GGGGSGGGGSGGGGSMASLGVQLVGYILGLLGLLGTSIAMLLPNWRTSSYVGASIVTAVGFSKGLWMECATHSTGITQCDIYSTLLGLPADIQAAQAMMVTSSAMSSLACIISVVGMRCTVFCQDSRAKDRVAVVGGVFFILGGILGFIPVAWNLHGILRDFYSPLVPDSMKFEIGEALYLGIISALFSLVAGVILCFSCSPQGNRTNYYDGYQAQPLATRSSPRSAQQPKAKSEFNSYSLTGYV
Assay: pull-down

fold binding against GFP cldn2 without the linker: ~3 fold
B1: myc-tagged N-terminal half of ZO-1 containing the PDZ domains (ZNA; amino acids 1-887) (domain or fragment, UniProt Q07157 1-887, looked up)
chain: MSARAAAAKSTAMEETAIWEQHTVTLHRAPGFGFGIAISGGRDNPHFQSGETSIVISDVLKGGPAEGQLQENDRVAMVNGVSMDNVEHAFAVQQLRKSGKNAKITIRRKKKVQIPVSRPDPEPVSDNEEDSYDEEIHDPRSGRSGVVNRRSEKIWPRDRSASRERSLSPRSDRRSVASSQPAKPTKVTLVKSRKNEEYGLRLASHIFVKEISQDSLAARDGNIQEGDVVLKINGTVTENMSLTDAKTLIERSKGKLKMVVQRDERATLLNVPDLSDSIHSANASERDDISEIQSLASDHSGRSHDRPPRRSRSRSPDQRSEPSDHSRHSPQQPSNGSLRSRDEERISKPGAVSTPVKHADDHTPKTVEEVTVERNEKQTPSLPEPKPVYAQVGQPDVDLPVSPSDGVLPNSTHEDGILRPSMKLVKFRKGDSVGLRLAGGNDVGIFVAGVLEDSPAAKEGLEEGDQILRVNNVDFTNIIREEAVLFLLDLPKGEEVTILAQKKKDVYRRIVESDVGDSFYIRTHFEYEKESPYGLSFNKGEVFRVVDTLYNGKLGSWLAIRIGKNHKEVERGIIPNKNRAEQLASVQYTLPKTAGGDRADFWRFRGLRSSKRNLRKSREDLSAQPVQTKFPAYERVVLREAGFLRPVTIFGPIADVAREKLAREEPDIYQIAKSEPRDAGTDQRSSGIIRLHTIKQIIDQDKHALLDVTPNAVDRLNYAQWYPIVVFLNPDSKQGVKTMRMRLCPESRKSARKLYERSHKLRKNNHHLFTTTINLNSMNDGWYGALKEAIQQQQNQLVWVSEGKADGATSDDLDLHDDRLSYLSAPGSEYSMYSTDSRHTSDYEDTDTEGGAYTDQELDETLNDEVGTPPESAITRSSEPVREDSSG

Source: article PMC5305259 (Molecular Biology of the Cell, 2017)
